Results as given in US20040063790A1, “Methods for inhibition of angiogenesis” (The Scripps Research Institute, priority 1996, published 2004).

How the values were obtained:
[1] = test system: αvβ3-expressing CS-1 cells; assay: Inhibition of cell attachment assay; type: cell-based, hamster
Method: As one means to determine integrin receptor specificity of the antagonists of this invention, inhibition of cell attachment assays were performed as described below.
Briefly, CS-1 hamster melanoma cells lacking expression of αvβ3 and αvβ5 were first transfected with an plasmid for expressing the […] as previously described by Filardo et al., J. Cell Biol., 130:441-450 (1995). Specificity of potential αvβ3 antagonists was determined by the ability to block the binding of αvβ3-expressing CS-1 cells to VN or laminin coated plates. As an example of a typical assay, the wells were first coated with 10 μg/ml substrate overnight. After rinsing and blocking with 1% heat-denatured BSA in PBS at room temperature for 30 minutes, peptide 85189 (SEQ ID NO: 15) over a concentration range of 0.0001 μM to 100 μM, was separately mixed with CS-1 cells for applying to wells with a cell number of 50, 000 cells/well. After a 10-15 minute incubation at 37° C., the solution containing the cells and peptides was discarded. The number of attached cells was then determined following staining with 1% crystal violet. Cell associated crystal violet was eluted by the addition of 100 microliters (μl) of 10% acetic acid. Cell adhesion was quantified by measuring the optical density of the eluted crystal violet at a wave length of 600 nm.

αvβ3 = molecular target: T1, αvβ3 (Homo sapiens, UniProt P05106+P06756); assay: Solid phase receptor binding assay (iodinated MMP-2, labeled fusion proteins)
T1 construct: selected purified integrins were separately immobilized in Titertek microtiter wells
Method: In addition, the ability of peptides to inhibit the binding of either MMP-2 or VN to immobilized αvβ3 was assessed with peptides 69601 (SEQ ID NO: 6) and 66203 (SEQ ID NO: 5).
Specificity of receptor interaction with MMP-2-derived antagonists was confirmed with binding and inhibition of binding solid phase assays. […] In addition, the binding of labeled GST2-4 was competed by unlabeled GST2-4.

αIIbβ3 = molecular target: T2, αIIbβ3 (Homo sapiens, UniProt P05106+P08514); assay: as above
T2 construct: selected purified integrins were separately immobilized in Titertek microtiter wells

[2] = test system: bFGF-induced angiogenesis; assay: CAM assay, growth factor-induced angiogenesis, intravenous application; type: in vivo, chick; conditions: 50 μg fusion protein; after 48 and 72 hours
Method: J. Pathol., 79:597 (1975). CAMs were prepared from chick embryos for subsequent induction of angiogenesis and inhibition thereof as described in Examples 4 and 5, respectively. Ten day old chick embryos were obtained from McIntyre Poultry (Lakeside, Calif.) and incubated at 37° C. with 60% humidity. A small hole was made through the shell at the end of the egg directly over the air sac with the use of a small crafts drill (Dremel, Division of Emerson Electric Co. Racine Wis.). A second hole was drilled on the broad side of the egg in a region devoid of embryonic blood vessels determined previously by candling the egg. […] A 1.0 centimeter (cm)×1.0 cm square window was cut through the shell over the dropped CAM with the use of a small model grinding wheel (Dremel). The small window allowed direct access to the underlying CAM.
Angiogenesis was induced by placing a 5 millimeter (mm)×5 mm Whatman filter disk (Whatman Filter paper No.1) saturated with Hanks Balanced Salt Solution (HBSS, GIBCO, Grand Island, N.Y.) or HBSS containing 150 nanograms/milliliter (ng/ml) recombinant basic fibroblast growth factor (bFGF) (Genzyme, Cambridge, Mass.) on the CAM of a 10-day chick embryo in a region devoid of blood vessels and the windows were latter sealed with tape. In other assays, 125 ng/ml bFGF was also effective at inducing blood vessel growth. For assays where inhibition of angiogenesis ws evaluated with intravenous injections of antagonists, angiogenesis was first induced with 1-2 μg/ml bFGF in fibroblast growth medium. Angiogenesis was monitored by photomicroscopy after 72 hours. CAMs were snap frozen, and 6 um cryostat sections were fixed with acetone and stained by immunofluorescence as described in Example 3C with 10 μg/ml of either anti-β1 monoclonal antibody CSAT or LM609.
For CAM preparations in which angiogenesis was induced with 1-2 μg/ml bFGF as previously described, synthetic peptides 69601 (control) and 66203 (SEQ ID NO: 5) were separately intravenously injected into CAM preparations 18 hours after bFGF induction of angiogenesis. The preparations were maintained for an additional 36-40 hours after which time the number of branch points were determined as previously described.
In other assays, peptide 85189 (SEQ ID NO: 15) was evaluated for inhibiting bFGF-induced angiogenesis in the CAM assay over a dosage range of 10 μg/embryo to 300 μg/embryo. The assay was performed as previously described.
In still further assays, peptide 85189 was compared to peptides 69601 and 66203 for anti-angiogenesis activity. The assay was performed as described above with the exception that 50 μg peptide were used.
The effectiveness of the different salt formulations of peptide 85189 was also evaluated in similar bFGF-induced CAM assays. The peptides were used at 100 μg/embryo. […] Untreated CAMs, labeled as “no cytokine” had approximately […] as many branch points as that seen with bFGF treatment, respectively 70 versus 190.
With the above-described protocol, the effect of MMP-2 fusion proteins, CTMMP-2(2-4), also referred to as CTMMP-2(445-467) and CTMMP-2(10-1), also referred to as CTMMP-2(274-637) was also evaluated. The assay was performed as previously described with the exception that 50 μg of fusion protein was administered to the bFGF-treated embryos. The effect of fusion protein treatment was assessed at 24 hours, 48 hours and 72 hours.
The 10 day old CAM preparation was used as previously described in Example 5A. Twenty-four hours after bFGF-induced angiogenesis was initiated, the organic peptidomimetics referred to as compounds 16 (81218), 17 (87292) and 18 (87293) were separately intravenously injected into the CAM preparation in a volume of 100 μl at a concentration of 1 mg/ml (100 μg/embryo) in 20% tetraglycol-PBS at pH 7.0. In parallel assays, compounds 7 (96112), 9 (99799), 10 (96229), 12 (112854) and 14 (96113) were similarly evaluated. […]

CS-1 tumor (β3-negative) = assay: CS-1 tumor growth in CAM; type: in vivo, chick; conditions: 50 μg intravenously after 24 hours of tumor growth; mass after 6 days; versus CTMMP-2(10-1) or PBS
Method: A CS-1 tumor (β3-negative) was prepared in a CAM as described above. After 24 hours of tumor growth, a composition of MMP-2 fragment, designated CTMMP-2(2-4) and prepared as described in Example 2A, was administered intraveneously at 50 μg fragment in 100 μl of PBS. After 6 days, the tumor was evaluated for mass. Tumors treated with CTMMP-2(2-4) were reduced in growth rate by about 50% when compared to the growth rate of control tumors treated with CTMMP-2(10-1) or with PBS control.

T1 sequence (P06756 31-889 limits assumed): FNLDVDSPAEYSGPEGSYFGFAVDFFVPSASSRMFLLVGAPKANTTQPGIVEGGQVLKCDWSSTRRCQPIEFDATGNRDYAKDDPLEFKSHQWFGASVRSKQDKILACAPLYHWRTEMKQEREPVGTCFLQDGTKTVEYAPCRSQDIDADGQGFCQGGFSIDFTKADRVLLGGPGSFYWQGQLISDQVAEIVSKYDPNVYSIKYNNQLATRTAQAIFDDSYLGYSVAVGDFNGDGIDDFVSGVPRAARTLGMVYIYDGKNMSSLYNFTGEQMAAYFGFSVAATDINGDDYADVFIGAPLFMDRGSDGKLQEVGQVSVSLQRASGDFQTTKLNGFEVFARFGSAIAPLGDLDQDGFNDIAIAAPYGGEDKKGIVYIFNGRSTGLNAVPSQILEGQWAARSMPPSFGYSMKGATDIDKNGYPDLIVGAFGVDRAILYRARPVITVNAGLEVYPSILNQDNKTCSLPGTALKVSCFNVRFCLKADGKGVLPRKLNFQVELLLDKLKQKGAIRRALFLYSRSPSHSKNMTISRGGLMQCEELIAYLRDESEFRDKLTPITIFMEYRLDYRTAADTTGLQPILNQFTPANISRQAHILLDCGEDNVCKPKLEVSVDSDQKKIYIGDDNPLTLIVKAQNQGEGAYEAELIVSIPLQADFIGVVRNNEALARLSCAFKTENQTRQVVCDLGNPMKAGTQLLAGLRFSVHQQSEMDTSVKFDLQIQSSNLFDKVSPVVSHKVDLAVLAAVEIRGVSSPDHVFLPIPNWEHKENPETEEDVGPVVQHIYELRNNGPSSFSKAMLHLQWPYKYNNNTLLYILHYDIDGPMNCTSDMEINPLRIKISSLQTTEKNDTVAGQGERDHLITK
T1 sequence (P06756 891-1048 partner limits assumed): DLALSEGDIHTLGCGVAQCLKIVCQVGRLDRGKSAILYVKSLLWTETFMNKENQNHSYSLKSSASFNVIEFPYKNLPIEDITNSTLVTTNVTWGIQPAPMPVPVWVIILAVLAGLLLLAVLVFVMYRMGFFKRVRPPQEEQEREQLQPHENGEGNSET
T1 sequence (P05106 27-788): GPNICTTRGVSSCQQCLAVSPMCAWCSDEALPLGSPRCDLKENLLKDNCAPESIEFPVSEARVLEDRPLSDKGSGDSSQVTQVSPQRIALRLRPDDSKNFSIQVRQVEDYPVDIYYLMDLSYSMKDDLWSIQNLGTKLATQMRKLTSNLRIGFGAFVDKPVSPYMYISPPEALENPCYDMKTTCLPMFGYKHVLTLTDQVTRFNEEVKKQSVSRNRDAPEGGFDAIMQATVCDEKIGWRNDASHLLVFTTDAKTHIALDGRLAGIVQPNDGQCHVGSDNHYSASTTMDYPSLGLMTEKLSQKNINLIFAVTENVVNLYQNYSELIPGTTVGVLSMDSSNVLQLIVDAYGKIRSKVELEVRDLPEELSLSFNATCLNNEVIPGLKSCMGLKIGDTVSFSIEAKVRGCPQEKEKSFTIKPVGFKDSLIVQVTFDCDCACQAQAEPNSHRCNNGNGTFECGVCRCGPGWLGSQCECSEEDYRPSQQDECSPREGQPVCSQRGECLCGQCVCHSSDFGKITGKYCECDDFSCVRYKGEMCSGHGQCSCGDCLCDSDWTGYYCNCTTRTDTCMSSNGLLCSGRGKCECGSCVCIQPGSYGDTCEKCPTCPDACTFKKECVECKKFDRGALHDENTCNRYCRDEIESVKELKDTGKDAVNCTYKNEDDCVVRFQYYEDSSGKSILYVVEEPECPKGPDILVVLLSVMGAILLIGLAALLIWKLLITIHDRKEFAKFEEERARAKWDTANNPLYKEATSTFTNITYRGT

Molecule	inhibition of β3-expressing CS-1 cell adhesion to laminin [1]	inhibition of β3-expressing CS-1 cell adhesion to vitronectin [1]	bound iodinated MMP-2 on immobilized αvβ3 (αvβ3)	bound iodinated MMP-2 on immobilized αIIbβ3 (αIIbβ3)	competition of labeled GST2-4 binding by unlabeled protein (αvβ3)	inhibition of binding of iodinated MMP-2 to αvβ3 (αvβ3; FIG. 8)	binding of 125I-labeled fusion protein to αvβ3 (αvβ3; FIG. 9)	inhibition of bFGF-induced angiogenesis by fusion protein [2]	reduction in tumor growth rate (CS-1 tumor (β3-negative))
MMP-2: matrix metalloproteinase-2, intact protein (protein) APSPIIKFPGDSTPKTDKELAVQYLNKYYGCPKDNCNLFVLKDTLKKMQKFFGLPETGDLDQNTIETMKKPRCGNPDVANYNFFPRKPKWEKNHITYRIIGYTPDLDPETVDDAFARAFKVWSDVTPLRFNRINDGEADIMINFGRWEHGDGYPFDGKDGLLAHAFAPGPGIGGDSHFDDDELWTLGEGQVVRVKYGNADGEYCKFPFWFNGKEYNSCTDAGRNDGFLWCSTTKDFDADGKYGFCPHESLFTMGGNGDGQPCKFPFKFQGQSYDQCTTEGRTDGYRWCGTTEDYDRDKKYGFCPETAMSTVGGNSEGAPCVFPFIFLGNKYDSCTSAGRNDGKLWCASTSSYDDDRKWGFCPDQGYSLFLVAAHEFGHAMGLEHSEDPGALMAPIYTYTKNFRLSQDDIKGIQELYEVSPDVEPGPGPGPGPGPRPTLGPVTPELCKHDIVFDGVAQIRGEIFFFKDRFMWRTVNPRGKPTGPLLVATFWPDLPEKIDAVYESPQDEKAVFFAGNEYWVYTASNLDRGYPKKLTSLGLPPDVQRIDAAFNWGRNKKTYIFSGDRYWKYNEEKKKMELATPKFIADSWNGVPDNLDAVLGLTDSGYTYFFKDQYYLQMEDKSLKIVKIGKISSDWLGC	but not laminin	inhibited	300 cpm	approximately 10 CPM					
CTMMP-2(2-4): GST fusion protein of chicken MMP-2 C-terminal residues 445-637 (protein, left off: a dimerising Fc or GST) LCKHDIVFDGVAQIRGEIFFFKDRFMWRTVNPRGKPTGPLLVATFWPDLPEKIDAVYESPQDEKAVFFAGNEYWVYTASNLDRGYPKKLTSLGLPPDVQRIDAAFNWGRNKKTYIFSGDRYWKYNEEKKKMELATPKFIADSWNGVPDNLDAVLGLTDSGYTYFFKDQYYLQMEDKSLKIVKIGKISSDWLGC	but not laminin	inhibited			competed	inhibited the binding of iodinated MMP-2	bound	almost completely inhibited	about 50%
